Test results published in article PMC5360572 (EBioMedicine, 2017).
Values belong to the molecule of their own block, whether it stands above or below them.

B2: human PD-L2 Ig fusion protein (Fc fusion, UniProt Q9BQ51 20-220, looked up)
chain: LFTVTVPKELYIIEHGSNVTLECNFDTGSHVNLGAITASLQKVENDTSPHRERATLLEEQLPLGKASFHIPQVQVRDEGQYQCIIIYGVAWDYKYLTLKVKASYRKINTHILKVPETDEVELTCQATGYPLAEVSWPNVSVPANTSHSRTPEGLYQVTSVLRLKPPPGRNFSCVFWNTHVRELTLASIDLQSQMEPRTHPT
notes: characterized by SEC prior to use; also called huPD-L2; B7-DC; source: bought: R&D Systems

Columns and labels:
[1] = target: human mature dendritic cells expressing PD-L1 and PD-L2
[2] = target: B2; assay: SPR; BIAcore 3000, 25 °C; PD-L1-Ig or PD-L2-Ig immobilized on CM5 chip by amine coupling; soluble monomeric PD-1 or mutants (0.01–100 μM) injected at 20 μl/min; equilibrium Kd, 1:1 Langmuir model; settings: both partners purified
[3] = target: T1, human PD-L1 Ig fusion protein (human, UniProt Q9NZQ7 19-238); assay: as above; settings: both partners purified
T1 construct: characterized by SEC prior to use; detected on cells with anti-human IgG Fcγ-specific F(ab')2; also called huPD-L1; B7-H1; source: bought: R&D Systems

[4] = target: T2, full-length human PD-1 I126A, on HEK293 cells (human, UniProt Q15116 25-288, I126A); assay: flow cytometry on cells; HEK293 cells transiently transfected with full-length wild type or mutant human PD-1, incubated with PD-L1 or PD-L2 Ig fusion proteins (0.01–50 μg/ml) for one hour on ice; APC anti-human IgG F(ab')2 Fcγ specific; MFI normalized to wild type PD-1 binding; relative binding at 0.5 μg/ml ligand; settings: one partner purified
T2 construct: Gateway pEF5/FRT/V5-DEST destination vector; source: HEK293, transiently transfected, on the cell surface
T2 sequence (Q15116 25-288 I126A): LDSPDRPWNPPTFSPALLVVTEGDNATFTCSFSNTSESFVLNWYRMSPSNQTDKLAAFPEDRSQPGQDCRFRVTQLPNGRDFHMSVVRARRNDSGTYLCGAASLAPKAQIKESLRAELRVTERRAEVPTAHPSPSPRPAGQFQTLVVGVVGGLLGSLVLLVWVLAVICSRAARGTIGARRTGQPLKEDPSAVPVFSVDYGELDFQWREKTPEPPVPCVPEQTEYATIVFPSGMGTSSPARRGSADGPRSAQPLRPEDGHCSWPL

T1 sequence (Q9NZQ7 19-238): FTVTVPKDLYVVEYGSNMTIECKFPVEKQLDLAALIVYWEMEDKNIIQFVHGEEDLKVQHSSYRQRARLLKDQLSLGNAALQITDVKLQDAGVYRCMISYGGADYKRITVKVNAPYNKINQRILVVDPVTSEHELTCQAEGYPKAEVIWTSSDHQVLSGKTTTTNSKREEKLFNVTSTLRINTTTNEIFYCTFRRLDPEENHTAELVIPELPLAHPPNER

T cell proliferation (3H-thymidine uptake) in allogeneic MLR with dendritic cells pre-treated with HA PD-1 Ig (0.5–5 μg/ml), against untreated control [1]: > 50%
production of IFN-γ and IL-12p70 in allogeneic MLR, against untreated control (no Ig) [1]: > 6 fold
Molecule: high-affinity human PD-1 (A132L) Ig fusion protein (from UniProt Q15116 25-170) (Fc fusion)

Kd [2]: 10.7 µM
Kd [3]: 4.02 µM
B1: mouse PD-1, wild type (soluble, monomeric) (domain or fragment, UniProt Q02242 25-169, looked up)
chain: LEVPNGPWRSLTFYPAWLTVSEGANATFTCSLSNWSEDLMLNWNRLSPSNQTEKQAAFCNGLSQPVQDARFQIIQLPNRHDFHMNILDTRRNDSGIYLCGAISLHPKAKIEESPGAELVVTERILETSTRYPSPSPKPEGRFQGM
notes: mouse PD-1, soluble monomeric form used as SPR analyte; the construct used here is not described; also called mPD-1; murine PD-1

Molecule: B2
reduction of binding relative to wild type PD-1 [4]: 50%
